Assay results taken from IntAct's records for PubMed 17030804.

B1: Rab11 family-interacting protein 3 (Homo sapiens), O75154-1 (parent)
chain: MASAPPASPPGSEPPGPDPEPGGPDGPGAAQLAPGPAELRLGAPVGGPDPQSPGLDEPAPGAAADGGARWSAGPAPGLEGGPRDPGPSAPPPRSGPRGQLASPDAPGPGPRSEAPLPELDPLFSWTEEPEECGPASCPESAPFRLQGSSSSHRARGEVDVFSPFPAPTAGELALEQGPGSPPQPSDLSQTHPLPSEPVGSQEDGPRLRAVFDALDGDGDGFVRIEDFIQFATVYGAEQVKDLTKYLDPSGLGVISFEDFYQGITAIRNGDPDGQCYGGVASAQDEEPLACPDEFDDFVTYEANEVTDSAYMGSESTYSECETFTDEDTSTLVHPELQPEGDADSAGGSAVPSECLDAMEEPDHGALLLLPGRPHPHGQSVITVIGGEEHFEDYGEGSEAELSPETLCNGQLGCSDPAFLTPSPTKRLSSKKVARYLHQSGALTMEALEDPSPELMEGPEEDIADKVVFLERRVLELEKDTAATGEQHSRLRQENLQLVHRANALEEQLKEQELRACEMVLEETRRQKELLCKMEREKSIEIENLQTRLQQLDEENSELRSCTPCLKANIERLEEEKQKLLDEIESLTLRLSEEQENKRRMGDRLSHERHQFQRDKEATQELIEDLRKQLEHLQLLKLEAEQRRGRSSSMGLQEYHSRARESELEQEVRRLKQDNRNLKEQNEELNGQIITLSIQGAKSLFSTAFSESLAAEISSVSRDELMEAIQKQEEINFRLQDYIDRIIVAIMETNPSILEVK

Variants of: B1
Settings: with rb11a_human RAB11A

Variant | effect of a mutation on the interaction
Y737S | disrupting interaction strength
D739A | disrupting interaction strength
M746S | disrupting interaction strength
E747A | decreasing interaction strength
